# B1: E. coli histidine kinase CheA, domains P3-P4-P5 (P1-P2 deleted) (domain or fragment, UniProt P07363 264-654, looked up)
# chain: IRVAVEKVDQLINLVGELVITQSMLAQRSSELDPVNHGDLITSMGQLQRNARDLQESVMSIRMMPMEYVFSRYPRLVRDLAGKLGKQVELTLVGSSTELDKSLIERIIDPLTHLVRNSLDHGIELPEKRLAAGKNSVGNLILSAEHQGGNICIEVTDDGAGLNRERILAKAASQGLTVSENMSDDEVAMLIFAPGFSTAEQVTDVSGRGVGMDVVKRNIQKMGGHVEIQSKQGTGTTIRILLPLTLAILDGMSVRVADEVFILPLNAVMESLQPREADLHPLAGGERVLEVRGEYLPIVELWKVFNVAGAKTEATQGIVVILQSGGRRYALLVDQLIGQHQVVVKNLESNYRKVPGISAATILGDGSVALIVDVSALQAINREQRMANTAA
# notes: Histidine kinase CheA, E. coli, domains P3, P4 and P5 (pQM12: based on pKJ9 with del P1-P2); the atomic model covers residues 264-646; The methods also name pKJ9 (full-length CheA); the results say that CheA.P3-P4-P5 stood in the monolayer arrays; also called CheA.P3-P4-P5; CheA.P3.P4.P5; source: E. coli RP3098, plasmid pQM12, purified (Affi-gel Blue, Superdex 200, Mono Q)
# B2: E. coli adaptor protein CheW (natural protein)
# chain: MTGMTNVTKLASEPSGQEFLVFTLGDEEYGIDILKVQEIRGYDQVTRIANTPAFIKGVTNLRGVIVPIVDLRIKFSQVDVDYNDNTVVIVLNLGQRVVGIVVDGVSDVLSLTAEQIRPAPEFAVTLSTEYLTGLGALGDRMLILVNIEKLLNSEEMALLDSAASEVA
# Tests used:
# [1] = target: His6-tagged 4Q variant of the cytoplasmic fragment of the E. coli aspartate receptor Tar (His6-TarCF4Q) (E. coli) (UniProt P07017); assay: cryo-EM structure; cryo-electron tomography and sub-tomogram averaging of arrays reconstituted in vitro; His6-TarCF held on a Ni2+-NTA lipid monolayer; 9:18:18 µM TarCF:CheA:CheW; 75 mM Tris-HCl pH 7.4, 100 mM KCl, 5 mM MgCl2; overnight
# [2] = target: the molecule itself; assay: as above
molecule,measurement,setting,value
His6-tagged 4Q variant of the cytoplasmic fragment of the E. coli aspartate receptor Tar (His6-TarCF4Q) (from UniProt P07017 357-553) (domain or fragment),stoichiometry N,[1],6
B1,stoichiometry N (CheA per receptor trimer-of-dimers (TOD)),[1],1
same,stoichiometry N,[2],2
B2,stoichiometry N (CheW per receptor trimer-of-dimers (TOD)),[1],2

# — article PMC6954272, “Structure and dynamics of the E. coli chemotaxis core signaling complex by cryo-electron tomography and molecular simulations” (Communications Biology, 2020)
